Source: patent US20180148504A1 (EISAI R AND D MANAGEMENT, published 2018)

Key:
[1] = target: T1, recombinant human folate receptor alpha (rhFRα) (human, UniProt P15328 25-234); experiment: BIAcore (SPR), format not described
T1 construct: CHO: Ig kappa leader, C-terminal 6xHis replacing the GPI attachment site; also called FOLR1; FOLR-1

[2] = target: T2, recombinant purified FRα (ECL assay calibrator) (human, UniProt P15328 25-234); experiment: ECL sandwich, FRα calibrator; capture 6A2.G7; binder = detection Ab
T2 construct: Calibrator of the ECL sandwich assays; also called FRα calibrator; FRα standard
T2 sequence (P15328 25-234 limits assumed): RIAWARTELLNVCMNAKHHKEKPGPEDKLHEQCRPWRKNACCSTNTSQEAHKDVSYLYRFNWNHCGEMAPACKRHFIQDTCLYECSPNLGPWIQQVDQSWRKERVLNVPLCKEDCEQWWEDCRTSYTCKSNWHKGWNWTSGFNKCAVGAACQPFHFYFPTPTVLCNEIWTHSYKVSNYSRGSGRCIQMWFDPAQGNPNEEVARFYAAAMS

[3] = target: T2, recombinant purified FRα (ECL assay …); experiment: ECL sandwich, FRα calibrator; capture 19D2.G9; binder = detection Ab
[4] = target: T2, recombinant purified FRα (ECL assay …); experiment: ECL sandwich, FRα calibrator; capture 24H8.D3; binder = detection Ab
[5] = target: T2, recombinant purified FRα (ECL assay …); experiment: ECL sandwich, FRα calibrator; capture 24H8.F3; binder = detection Ab
[6] = target: T2, recombinant purified FRα (ECL assay …); experiment: ECL sandwich, FRα calibrator; capture 26A9.C4; binder = detection Ab
[7] = target: T2, recombinant purified FRα (ECL assay …); experiment: ECL sandwich, FRα calibrator; capture 2F11.F8; binder = detection Ab
[8] = target: T2, recombinant purified FRα (ECL assay …); experiment: ECL sandwich, FRα calibrator; capture 5C12.H8; binder = detection Ab
[9] = target: T2, recombinant purified FRα (ECL assay …); experiment: ECL sandwich, FRα calibrator; capture 19D4.B7; binder = detection Ab
[10] = target: T2, recombinant purified FRα (ECL assay …); experiment: ECL sandwich, FRα calibrator; capture 28H12.G9; binder = detection Ab
[11] = target: T2, recombinant purified FRα (ECL assay …); experiment: ECL sandwich, FRα calibrator; capture 1C6.E12.G8; binder = detection Ab
[12] = target: T2, recombinant purified FRα (ECL assay …); experiment: ECL sandwich, FRα calibrator; capture 1D2.G8.G10; binder = detection Ab
[13] = target: T2, recombinant purified FRα (ECL assay …); experiment: ECL sandwich, FRα calibrator; capture 1A8.G11.E7; binder = detection Ab
[14] = target: T3, human folate receptor beta (FRβ), recombinant, C-terminal 6xHis (human, UniProt P14207 17-230, limits assumed); experiment: direct ELISA, plates coated with 1 µg/mL FR isoform, dilution series of culture supernatant
T3 construct: Transiently expressed in 293F cells and purified; coated on ELISA plates
T3 sequence (P14207 other isoform, or with tags, fused parts or gaps limits assumed): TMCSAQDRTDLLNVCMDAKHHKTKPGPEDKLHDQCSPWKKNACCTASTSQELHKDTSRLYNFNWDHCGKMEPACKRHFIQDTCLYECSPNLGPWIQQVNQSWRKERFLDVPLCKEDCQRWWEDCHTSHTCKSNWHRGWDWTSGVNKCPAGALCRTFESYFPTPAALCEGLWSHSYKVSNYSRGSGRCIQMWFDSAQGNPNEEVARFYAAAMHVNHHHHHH

[15] = target: T4, human folate receptor gamma (FRγ), recombinant, C-terminal 6xHis (human, UniProt P41439 23-245, limits assumed); experiment: as above
T4 construct: Transiently expressed in 293F cells and purified; coated on ELISA plates
T4 sequence (P41439 other isoform, or with tags, fused parts or gaps limits assumed): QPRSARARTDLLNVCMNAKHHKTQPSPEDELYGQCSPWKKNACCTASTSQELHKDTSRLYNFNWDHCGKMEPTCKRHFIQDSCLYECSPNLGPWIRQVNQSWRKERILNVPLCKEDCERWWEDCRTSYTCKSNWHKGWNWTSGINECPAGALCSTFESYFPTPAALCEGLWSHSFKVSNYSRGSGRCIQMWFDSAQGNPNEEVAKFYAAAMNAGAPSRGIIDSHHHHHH

[16] = target: T2, recombinant purified FRα (ECL assay …); experiment: ECL sandwich, FRα calibrator; capture 30G6.G6.G4.E9; binder = detection Ab
[17] = target: T2, recombinant purified FRα (ECL assay …); experiment: ECL sandwich on FRα, signal to background; capture 6A2.G7; binder = detection Ab
[18] = target: T2, recombinant purified FRα (ECL assay …); experiment: ECL sandwich on FRα, signal to background; capture 19D2.G9; binder = detection Ab
[19] = target: T2, recombinant purified FRα (ECL assay …); experiment: ECL sandwich on FRα, signal to background; capture 24H8.D3; binder = detection Ab
[20] = target: T2, recombinant purified FRα (ECL assay …); experiment: ECL sandwich on FRα, signal to background; capture 24H8.F3; binder = detection Ab
[21] = target: T2, recombinant purified FRα (ECL assay …); experiment: ECL sandwich on FRα, signal to background; capture 26A9.C4; binder = detection Ab
[22] = target: T2, recombinant purified FRα (ECL assay …); experiment: ECL sandwich on FRα, signal to background; capture 2F11.F8; binder = detection Ab
[23] = target: T2, recombinant purified FRα (ECL assay …); experiment: ECL sandwich on FRα, signal to background; capture 5C12.H8; binder = detection Ab
[24] = target: T2, recombinant purified FRα (ECL assay …); experiment: ECL sandwich on FRα, signal to background; capture 19D4.B7; binder = detection Ab
[25] = target: T2, recombinant purified FRα (ECL assay …); experiment: ECL sandwich on FRα, signal to background; capture 28H12.G9; binder = detection Ab
[26] = target: T2, recombinant purified FRα (ECL assay …); experiment: ECL sandwich on FRα, signal to background; capture 1C6.E12.G8; binder = detection Ab
[27] = target: T2, recombinant purified FRα (ECL assay …); experiment: ECL sandwich on FRα, signal to background; capture 1D2.G8.G10; binder = detection Ab
[28] = target: T2, recombinant purified FRα (ECL assay …); experiment: ECL sandwich on FRα, signal to background; capture 1A8.G11.E7; binder = detection Ab
[29] = target: T2, recombinant purified FRα (ECL assay …); experiment: ECL sandwich on FRα, signal to background; capture 30G6.G6.G4.E9; binder = detection Ab

T1 sequence (P15328 25-234 limits assumed): as the sequence (P15328 25-234 limits assumed) above

B1: Monoclonal antibody 1D2.D8.G10 (antibody, mouse IgG1, V domains shown)
VH: QSGTVLARPGASVKMSCKASGYSFTSNWMHWIKQRPGQGLEWIGAIYPGNSDTSYNQKFKGKAKLTAVTSASTAYMELSSLTNEDSAVYHCTRGDGSSFWYFDVWGAGTTVTVSS
VL: QSPASLVVSLGQRATISCRASKSVSTSGYSYMYWYQQKSGQPPKLLIYLASNLESGVPARFSGGGSGTDFTLNIHPVEEEDAATYYCQQSRELPPTFGGGTKLEIK
notes: Murine IgG1 kappa from hybridoma; also called 1D2.D8.G0; ATCC PTA-123098
With B1 the Kd [1] was 6.88 nM, the “Specific signal at 500 pg/mL” value [2] was 1690 and the “Specific signal at 500 pg/mL” value [3] was 67. For the same binder, the “Specific signal at 500 pg/mL” value [4] was 79, the “Specific signal at 500 pg/mL” value [5] was 67 and the “Specific signal at 500 pg/mL” value [6] was 86. For the same binder, the “Specific signal at 500 pg/mL” value [7] was 62, the “Specific signal at 500 pg/mL” value [8] was 73 and the “Specific signal at 500 pg/mL” value [9] was 21800. The “Specific signal at 500 pg/mL” value [10] was 78, the “Specific signal at 500 pg/mL” value [11] was 74 and the “Specific signal at 500 pg/mL” value [12] was 87. For the same binder, the “Specific signal at 500 pg/mL” value [13] was 57, the binding result [14] was “no binding” and the binding result [15] was “no binding”. For the same binder, the “Specific signal at 500 pg/mL” value [16] was 7910, the “Average of S/B” value [17] was 26 and the “Average of S/B” value [18] was 1. The “Average of S/B” value [19] was 1, the “Average of S/B” value [20] was 1 and the “Average of S/B” value [21] was 1. For the same binder, the “Average of S/B” value [22] was 1, the “Average of S/B” value [23] was 1 and the “Average of S/B” value [24] was 218. The “Average of S/B” value [25] was 1, the “Average of S/B” value [26] was 1 and the “Average of S/B” value [27] was 1. The “Average of S/B” value [28] was 1 and the “Average of S/B” value [29] was 75.

B2: Monoclonal antibody 24H8.F3 (antibody, mouse IgG1, V domains shown)
VH: GPGLVAPSQSLSITCTVSGFSLTSYGVSWVRQPPGKGLEWLGVIWGDGSTNYHSTLISRLSISKDNSKSQVFLKLNSLQTDDTATYYCAKPHPAATGAMDYWGQGTSVTVSS
VL: TTSSLSASLGDRVTISCRASQDISNHLNWYQQKPDGTIKLLIYYTSKLHSGVPSRFSGSGSGTDYSLTISNLEQEDIATYFCQQGNTLWTFGGGTKLEIK
notes: Murine IgG1 kappa from hybridoma; also called ATCC PTA-123097
B2 was tested, and the “Specific signal at 500 pg/mL” value [2] was 1870, the “Specific signal at 500 pg/mL” value [3] was 242 and the “Specific signal at 500 pg/mL” value [4] was 158. The “Specific signal at 500 pg/mL” value [5] was 104, the “Specific signal at 500 pg/mL” value [6] was 72 and the “Specific signal at 500 pg/mL” value [7] was 61. The “Specific signal at 500 pg/mL” value [8] was 70, the “Specific signal at 500 pg/mL” value [9] was 33600 and the “Specific signal at 500 pg/mL” value [10] was 85. For the same binder, the “Specific signal at 500 pg/mL” value [11] was 64, the “Specific signal at 500 pg/mL” value [12] was 64 and the “Specific signal at 500 pg/mL” value [13] was 139. The binding result [14] was “no binding”, the binding result [15] was “no binding” and the “Specific signal at 500 pg/mL” value [16] was 28300. The “Average of S/B” value [17] was 27, the “Average of S/B” value [18] was 4 and the “Average of S/B” value [19] was 2. For the same binder, the “Average of S/B” value [20] was 1, the “Average of S/B” value [21] was 1 and the “Average of S/B” value [22] was 1. The “Average of S/B” value [23] was 2, the “Average of S/B” value [24] was 327 and the “Average of S/B” value [25] was 2. For the same binder, the “Average of S/B” value [26] was 1, the “Average of S/B” value [27] was 1 and the “Average of S/B” value [28] was 2. For the same binder, the “Average of S/B” value [29] was 501.

B3: Monoclonal antibody 1A8.G11.E7 (antibody, mouse IgG1, V domains shown)
VH: ESGPGLVAPSQSLSITCTVSGFSLTSYGVSWVRQPPGKGLEWLGVIWGDGSTNYHSTLISRLSISKDNSKSQVFLKLNSLQTDDTATYYCAKPHPAATGAMDYWGQGTSVTVSS
VL: TQTTSSLSASLGDRVTISCRASQDISNHLNWYQQKPDGTVKLLIYYTSRLHSGVPSRFSGSGSGTDYSLTISNLEQEDIATYFCQQGNTLWTFGGGTKLEIK
notes: Murine IgG1 kappa from hybridoma; also called ATCC PTA-123100
B3 was tested, and the “Specific signal at 500 pg/mL” value [2] was 1840, the “Specific signal at 500 pg/mL” value [3] was 106 and the “Specific signal at 500 pg/mL” value [4] was 84. For the same binder, the “Specific signal at 500 pg/mL” value [5] was 87, the “Specific signal at 500 pg/mL” value [6] was 80 and the “Specific signal at 500 pg/mL” value [7] was 60. For the same binder, the “Specific signal at 500 pg/mL” value [8] was 76, the “Specific signal at 500 pg/mL” value [9] was 41400 and the “Specific signal at 500 pg/mL” value [10] was 83. The “Specific signal at 500 pg/mL” value [11] was 75, the “Specific signal at 500 pg/mL” value [12] was 64 and the “Specific signal at 500 pg/mL” value [13] was 67. The binding result [14] was “no binding”, the binding result [15] was “no binding” and the “Specific signal at 500 pg/mL” value [16] was 17900. The “Average of S/B” value [17] was 27, the “Average of S/B” value [18] was 2 and the “Average of S/B” value [19] was 1. For the same binder, the “Average of S/B” value [20] was 1, the “Average of S/B” value [21] was 1 and the “Average of S/B” value [22] was 1. The “Average of S/B” value [23] was 1, the “Average of S/B” value [24] was 310 and the “Average of S/B” value [25] was 1. The “Average of S/B” value [26] was 1, the “Average of S/B” value [27] was 1 and the “Average of S/B” value [28] was 1. For the same binder, the “Average of S/B” value [29] was 244.
